# Source: patent US20220267427A1 (SYSMEX, published 2022)
# T1: fCK18 in apoptosis-induced HepG2 cell culture supernatant (human, UniProt P05783 239-397)
# T1 construct: Natural CK18 fragment from the culture supernatant of apoptosis-induced HepG2 cells (band around 18 KDa); also called fCK18 in apoptosis-inducing cells
# T1 sequence: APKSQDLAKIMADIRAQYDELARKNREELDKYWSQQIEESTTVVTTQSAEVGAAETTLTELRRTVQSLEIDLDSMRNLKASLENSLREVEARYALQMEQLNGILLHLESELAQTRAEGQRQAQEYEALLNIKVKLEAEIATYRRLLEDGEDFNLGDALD
# Columns and labels:
# [1] = target: T1, fCK18 in apoptosis-induced HepG2 cell …; assay: HISCL sandwich immunoassay; K18-624 magnetic microbeads capture, K18-328Fab-ALP detector; fCK18 0.74 ng/mL
# [2] = target: T1, fCK18 in apoptosis-induced HepG2 cell …; assay: plate ELISA with K18-624 magnetic microbeads, K18-328Fab-ALP detector; fCK18 2.23 ng/mL
# Description: (§1) Measurement samples of 3-fold dilution series (3-fold to 6561-fold dilution) were prepared from the apoptosis-induced HepG2 cell culture supernatant with a diluent (TBS, pH 7.5, 2% BSA), and fCK18 was measured. […] Based on the prepared calibration curve, fCK18 in the measurement sample was measured.
# (§2) This solution was added to an ELISA plate at 25 μL/well, then each measurement sample was added at 25 μL/well, and the plate was incubated (1500 rpm, RT, 20 min). […] (3) After washing the plate, the HISCL (registered trademark) R4 reagent was added thereto at 50 μL/well, and then the mixture was stirred (1500 rpm, RT, 1 min). Thereafter, the HISCL (registered trademark) R5 reagent was added at 100 μL/well, and then the mixture was stirred (1000 rpm, RT, 10 sec). (4) Luminescence intensity was measured with a plate reader.
# [3] = target: T1, fCK18 in apoptosis-induced HepG2 cell …; assay: HISCL sandwich immunoassay; K18-624 magnetic microbeads capture, K18-328Fab-ALP detector; fCK18 0.28 ng/mL
# [4] = target: T1, fCK18 in apoptosis-induced HepG2 cell …; assay: plate ELISA with K18-624 magnetic microbeads, K18-328Fab-ALP detector; fCK18 182.28 ng/mL
# Description: as §1, §2
# [5] = target: T1, fCK18 in apoptosis-induced HepG2 cell …; assay: HISCL sandwich immunoassay; K18-624 magnetic microbeads capture, K18-328Fab-ALP detector; fCK18 6.79 ng/mL
# Description: as §1, §2
# [6] = target: T1, fCK18 in apoptosis-induced HepG2 cell …; assay: plate ELISA with K18-624 magnetic microbeads, K18-328Fab-ALP detector; fCK18 0.09 ng/mL
# Description: as §1, §2
# [7] = target: T1, fCK18 in apoptosis-induced HepG2 cell …; assay: plate ELISA with K18-624 magnetic microbeads, K18-328Fab-ALP detector; fCK18 20.27 ng/mL
# Description: as §1, §2
# [8] = target: T1, fCK18 in apoptosis-induced HepG2 cell …; assay: HISCL sandwich immunoassay; K18-624 magnetic microbeads capture, K18-328Fab-ALP detector; fCK18 2.23 ng/mL
# [9] = target: T1, fCK18 in apoptosis-induced HepG2 cell …; assay: plate ELISA with K18-624 magnetic microbeads, K18-328Fab-ALP detector; fCK18 0.74 ng/mL
# Description: as §1, §2
binder,measurement,setting,value
"K18-624 antibody (antibody, V domains shown, Mouse monoclonal antibody from a hybridoma (Balb/C mouse immunised with Peptide 1-KLH)) VH: DVQLVESGGGLVQPGGSRKLSCAASGFTFSSFGMHWVRQAPEKGLEWVAYISSGSTTIYYADTVKGRFTISRDNPKNTLFLQMTSLRSEDTAMYYCARRGMITTGAWFAYWGQGTLVTVSA VL: DILLTQSPAILSVSPGERVSFSCRASQRIGTSIHWYQQRTNGSPRLLIKYASESISGIPSRFSGSGSGTDFTLSINSVESEDIADYYCQQSYIWPFTFGSGTKLEIK",S/N ratio,[1],9.4
same,S/N ratio,[2],47.3
same,S/N ratio,[3],3.8
same,S/N ratio,[4],5560
same,S/N ratio,[5],75.7
same,S/N ratio,[6],2.7
same,S/N ratio,[7],525
same,S/N ratio,[8],25.9
same,S/N ratio,[9],16.1
